Results published in paper PMC9438502, “Complementarity of neutron, XFEL and synchrotron crystallography for defining the structures of metalloenzymes at room temperature” (IUCrJ, 2022).

Target: the molecule itself
Test: crystal structure; room-temperature crystals of DHP-B, space group P2(1)2(1)2(1); neutron, in-house X-ray, SFX, SSX and serial Laue data; two protomers (A, B) in the asymmetric unit

B1: dehaloperoxidase B (enzyme, Amphitrite ornata)
chain: MGFKQDIATLRGDLRTYAQDIFLAFLNKYPDEKRNFKNYVGKSDQELKSMAKFGDHTEKVFNLMMEVADRATDCVPLASDASTLVQMKQHSGLTTGNFEKLFVALVEYMRASGQSFDSQSWDRFGKNLVSALSSAGMK
notes: dehaloperoxidase B (DHP-B), heme-containing coelomic hemoglobin of the marine annelid Amphitrite ornata; 274 protein residues modelled for the two protomers of the asymmetric unit; Heme protein, ferric or oxyferrous; The crystal for NX and NX-Xray was perdeuterated (97% deuteration level); the other crystals were protiated; also called DHP-B; dehaloperoxidase isoenzyme B; source: E. coli …
- binding result: binds
